Experimental data taken from patent US7037663B2, “Human zona pellucida protein 3 and uses thereof” (Eastern Virginia Medical School, priority 1998, dated 2006).

How the values were obtained:
human sperm = experiment: Acrosome reaction of live sperm by FITC-PSA, second series; format: cell-based
Description: Determination of the acrosome reaction—The proportion of live acrosome-reacted spermatozoa incubated under capacitating conditions was determined with the fluorescent probe fluorescein isothiocyanate-labeled Pisum Sativum Agglutinin (FITC-PSA, Sigma) after staining with a supravital stain (Hoechst 33258, Sigma) following established techniques (12,13). At least 200 sperm per sample were evaluated in duplicate at 600× magnification using an epifluorescence microscope equipped with phase-contrast optics (Optiphot; Nikon, Melville, N.Y.). Slides were coded and read in a blind fashion.
A calcium ionophore agent (A23187, Sigma) tested at 5 μM and human acid solubilized zona pellucida tested at a final concentration of 4 zona/10 μl were used as positive controls (20). In further experiments, the acrosomal status was assessed by transmission electron microscopy. Spermatozoa were fixed by mixing sperm suspensions with equal volumes of 2% (v/v) glutaraldehyde (in 3 mM CaCl2 and 0.1 M sodium cacodylate); thereafter, samples were dehydrated twice and prepared for thin sectioning using previously published procedures. Ultrastructural examination was performed with a transmission electron microscope (Jeol JEM-1200 EX II, Peabody, Mass.).
Experiment 2: Characterization of the acrosome reaction inducing activity of the rhZP3 in dose- and sperm capacitation-dependency studies—Motile sperm fractions from 29 ejaculates of 11 different donors were incubated under capacitating conditions for 3 hours and assayed for acrosome reaction using FITC-PSA. Following swim-up, sperm aliquots were pre-incubated for 30 minutes with rhZP3 (30 ng/ml), A23187 (positive control), culture medium from non-transfected PA-cells (NT) or sperm culture medium (negative controls). This was the initially selected dose of rhZP3 to be tested as it had proven to effect significant inhibition of sperm-zona binding in the HZA.
The dose-dependent effect of rhZP3 on acrosome reaction was examined in the swim-up fractions obtained from four different donors. The fractions were capacitated for 3 hours and exposed for 30 min to rhZP3 at final concentrations of 0, 7.5, 15, 30, 60, 120, 240, 480, 960 and 1920 ng/ml. The capacitation-dependency of the acrosome reaction-inducing activity of rhZP3 was assessed in the swim-up fractions of four ejaculates from four different donors. Capacitation times included: 0 (immediately post-swim-up), 1, 4, 8, 12 and 24 hours. After the capacitation period, rhZP3 was added to the sperm suspension at a final concentration of 30 ng/ml.
In another set of experiments, three different ejaculates were used to compare the effects of the rhZP3 (tested at 500 ng/ml) with those of solubilized zonae pellucidae and the calcium ionophore. Further, the induction of the acrosome reaction was assessed in parallel with FITC-PSA and transmission electron microscopy. The goal of these studies was to compare the morphological features of the acrosome reaction between agonists and also between the agonist-induced and basal exocytosis rates.

[1] = system: sperm-zona pellucida binding; conditions: Dong et al 2000; cited from earlier work

B1: rhZP3: recombinant human zona pellucida protein 3 with six-histidine tail, expressed in human ovarian PA-1 cells; secreted glycoprotein of approximately 65 Kd (protein)
chain: QPLWLLQGGASHPETSVQPVLVECQEATLMVMVSKDLFGTGKLIRAADLTLGPEACEPLVSMDTEDVVRFEVGLHECGNSMQVTDDALVYSTFLLHDPRPVGNLSIVRTNRAEIPIECRYPRQGNVSSQAILPTWLPFRTTVFSEEKLTFSLRLMEENWNAEKRSPTFHLGDAAHLQAEIHTGSHVPLRLFVDHCVATPTPDQNASPYHTIVDFHGCLVDGLTDASSAFKVPRPGPDTLQFTVDVFHFANDSRNMIYITCHLKVTLAEQDPDELNKACSFSKPSNSWFPVEGSADICQCCNKGDCGTPSHSRRQPHVMSQWSRSASRNHHHHHH
concentration of highest acrosome reaction-inducing activity (human sperm): 0.5 to 2 µg/mL | concentration range of highest stimulation (maximal effects) of acrosome reaction (human sperm): 500-2,000 ng/ml | potency relative to CHO cell product (human sperm; 0.5-2 μg/ml versus 15-20 μg/ml): at least 10 times | minimally effective dose, induction of the acrosome reaction (human sperm; 3 h capacitation, 30 min exposure): 30 ng/mL | highest stimulation of acrosome reaction, increase from baseline conditions (human sperm; in the range of 500-2,000 ng/ml): approximately 210% | capacitation time of maximal stimulation of acrosome reaction (human sperm; rhZP3 30 ng/ml): 8 to 10 h | live, acrosome reacted sperm (human sperm; rhZP3 30 ng/ml, A23187 5 μM, 3 h capacitation, 30 min exposure): 19±4.1% | induction of the acrosome reaction (human sperm; rhZP3 500 ng/ml, solubilized zona 4 zona/10 μl, A23187 5 μM): 28.2±5.6% | range of maximal effect, ligand activity [1]: 30-1,000 ng/ml
